Assay [1] relates to hair inductive activity of DP cells. As to the kind of experiment: Skin reconstitution assay: co-cultured DP cells plus keratinocytes grafted on nude mouse hosts. The format is in vivo. An excerpt:
(§1) Fresh mouse pelage DP cells were obtained from versican GFP transgenic newborn skin by high-speed cell sorting (MoFLO) as described previously in Kishimoto et al., supra. Chick embryo fibroblasts (CEFs) were infected with RCASBP(A) retroviral vectors encoding chick Shh, as described in Riddle et al. (1993) Cell 75:1401-1416, Wnt3a, as described in Kengaku et al. (1998) Science 280:1274-1277, Wnt4, Wnt5a (Noramly and Morgan, in prep), or Wnt7a, as described in Riddle et al. (1995) Cell 83:631-640, or vector alone as described, as described in Morgan et al. in Methods in Cell Biology (ed. Bonner-Fraser) pp. 185-218 (Academic Press, San Diego, 1996). GFP positive mouse DP cells were added onto 30-50% confluent feeder cells to achieve a ratio of 1:3 (mouse:chick). For the flow cytometric analysis, cells were co-cultured in 24 well dishes for 48-96 hrs. For the grafting experiment co-cultured cells were passaged 2-3 times in 10 cm dishes to generate the 2×10^6 cells required for each graft.
The reconstitution assay was performed as described in Kishimoto et al., supra. Primary keratinocytes were prepared from 2 newborn pups per graft and combined with 2×10^6 DP cells in the graft chamber. Hair growth was monitored two weeks after grafting and weekly thereafter.

The subject of assay [2] is versican GFP transgenic mouse pelage DP cells. As to the kind of experiment: Flow cytometric analysis of GFP expression in DP cells co-cultured with feeder cells. The settings on record: for GFP expression (GFP fluorescence) of DP cells: freshly isolated DP cells co-cultured with feeder cells expressing the protein, FACS analysis. The class given is cell-based.
Excerpt: as §1
Cells were trypsinized and resuspended in 0.5 ml PBS with 1% BSA. Flow cytometric analysis was performed by FACScan (Becton Dickinson). DP cells were labeled with mouse MHC class II monoclonal antibody and incubated with secondary IgG conjugated to PE. The PE negative avian cells fell below the lower gate in FIG. 3 and were excluded from the analysis of GFP expression.

Assay [3] has the same test system. As to the kind of experiment: RT-PCR analysis of gene expression in DP cells co-cultured with feeder cells. The class given is cell-based. To be noted: freshly isolated DP cells co-cultured with feeder layers. Here is the method:
Total RNA was isolated and RT PCR performed as described in Kishimoto et al. (1999) Proc. Natl Acad. Sci. USA 96:7336-7341, using an annealing temperature of 58° C. The primers employed are listed below. With the exception of Wnts 4, 5 and 7, the primers were designed to distinguish between mouse and chicken orthologues and the lack of cross reaction to chick sequences was confirmed on cDNA from feeder cells alone.
as §1, with “For the grafting experiment co-cultured cells were passaged 2-3 times in 10 cm dishes to generate the 2×10^6 cells required for each graft.” left out

The mark [4] stands for this setting: DP cells maintained in culture until GFP expression and hair inductive activity were lost.

B1: Wnt3a: Wnt protein supplied by chick embryo fibroblast feeder cells infected with RCASBP(A) retroviral vector encoding Wnt3a (protein, UniProt Q2LMP1 19-352, looked up)
Protein Wnt-3a: SYPIWWSLAIGHQYSSLGTQPILCGSIPGLVPKQLRFCRNYVEIMPSVAEGVKIGIQECQHQFRGRRWNCTTVNDSLAIFGPVLDKATRESAFVHAIASAGVAFAVTRSCAEGSATICGCDTRHKGSPGEGWKWGGCSEDVEFGSMVSREFADARENRPDARSAMNRHNNEAGRTSIIELMHLKCKCHGLSGSCEVKTCWWSQPDFRVIGDYLKDKYDSASEMVVEKHRESRGWVETLRPKYNFFKAPTEKDLVYYENSPNFCEPNPETGSFGTRDRICNVTSHGIDGCDLLCCGRGHNTRTEKRKEKCHCIFHWCCYVRCQECIRVYDVHTCK
For the molecule B1, the “reactivation of hair inductive activity in DP cells that lost it in culture” value in assay [1] (setting [4]) was “cannot reactivate”. Besides, the “hair growth / hair inductive activity of co-cultured DP cells” value in assay [1] (reconstituted skin on nude mouse host, compared to cells co-cultured with control feeders or Shh expression cells) was “dramatic increase in hair growth”. Besides, in assay [1] (three weeks after grafting to nude mouse, DP cells co-cultured with feeder cells, combined with keratinocytes), the “hair in graft of treated DP cells” value was “formed a dense patch of hair in the graft”. Moreover, in assay [2] (setting [4]), the “reactivation of GFP expression in DP cells that lost it in culture” value was “cannot reactivate”. The “GFP expression (GFP fluorescence) of DP cells” value in assay [2] is on record as “maintenance of GFP fluorescence in the majority of the DP cells”. Further, the “GFP RNA levels in DP cells” value in assay [3] was “maintained”.

B2: Wnt 4: Wnt protein supplied by chick embryo fibroblast feeder cells infected with RCASBP(A) retroviral vector encoding Wnt4 (protein, UniProt P49337 23-351, looked up)
Protein Wnt-4: SNWLYLAKLSSVGSISEEETCEKLKGLIQRQVQMCKRNLEVMDSVRRGAQLAIEECQYQFRNRRWNCSTLDTLPVFGKVVTQGTREAAFVYAISSAGVAFAVTRACSSGELDKCGCDRTVQGGSPQGFQWSGCSDNIAYGVAFSQSFVDVRERSKGASSNRALMNLHNNEAGRKAILNNMRVECKCHGVSGSCEFKTCWKAMPPFRKVGNVLKEKFDGATEVEQSEIGSTKVLVPKNSQFKPHTDEDLVYLDSSPDFCDHDLKNGVLGTSGRQCNKTSKAIDGCELMCCGRGFHTDEVEVVERCSCKFHWCCSVKCKPCHRVVEIHTCR
Regarding B2, the “GFP expression (GFP fluorescence) of DP cells” value in assay [2] is given as “some maintenance of GFP expression but were less potent than either Wnt3a or 7a”.

The values are drawn from patent publication US7985587B2, “Methods of culturing dermal papilla cells” (The General Hospital Corporation, priority 2000, dated 2011).
